In article PMC10017041 (Science Advances, 2023):

Columns and labels:
Assay in all cases: cryo-EM structure
[1] = target: CCT3 subunit of yeast TRiC (S. cerevisiae, UniProt P39077 1-534)
[2] = target: CCT1 subunit of yeast TRiC (S. cerevisiae, UniProt P12612 1-559)
[3] = target: CCT4 subunit of yeast TRiC (S. cerevisiae, UniProt P39078 1-528)
[4] = target: CCT6 subunit of yeast TRiC (S. cerevisiae, UniProt P39079 1-546)
[5] = target: CCT2 subunit of yeast TRiC (S. cerevisiae, UniProt P39076 1-527)
Sequence of CCT2 subunit of yeast TRiC (P39076 whole entry): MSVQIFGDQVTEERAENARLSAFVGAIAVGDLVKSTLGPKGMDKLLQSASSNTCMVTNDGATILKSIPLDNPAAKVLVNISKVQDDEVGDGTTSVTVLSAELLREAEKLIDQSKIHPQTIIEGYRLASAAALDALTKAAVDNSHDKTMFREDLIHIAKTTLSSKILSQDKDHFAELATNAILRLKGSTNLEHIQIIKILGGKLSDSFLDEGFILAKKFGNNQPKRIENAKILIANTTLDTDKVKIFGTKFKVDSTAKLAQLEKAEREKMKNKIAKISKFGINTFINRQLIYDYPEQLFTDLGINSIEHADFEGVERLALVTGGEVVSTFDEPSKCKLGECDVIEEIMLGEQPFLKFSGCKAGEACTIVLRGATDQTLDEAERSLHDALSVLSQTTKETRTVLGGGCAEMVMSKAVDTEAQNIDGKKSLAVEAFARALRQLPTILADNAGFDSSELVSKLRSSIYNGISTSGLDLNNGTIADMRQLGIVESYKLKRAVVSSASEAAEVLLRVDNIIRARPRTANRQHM

[6] = target: CCT5 subunit of yeast TRiC (S. cerevisiae, UniProt P40413 1-562)
Sequence of CCT5 subunit of yeast TRiC (P40413 whole entry): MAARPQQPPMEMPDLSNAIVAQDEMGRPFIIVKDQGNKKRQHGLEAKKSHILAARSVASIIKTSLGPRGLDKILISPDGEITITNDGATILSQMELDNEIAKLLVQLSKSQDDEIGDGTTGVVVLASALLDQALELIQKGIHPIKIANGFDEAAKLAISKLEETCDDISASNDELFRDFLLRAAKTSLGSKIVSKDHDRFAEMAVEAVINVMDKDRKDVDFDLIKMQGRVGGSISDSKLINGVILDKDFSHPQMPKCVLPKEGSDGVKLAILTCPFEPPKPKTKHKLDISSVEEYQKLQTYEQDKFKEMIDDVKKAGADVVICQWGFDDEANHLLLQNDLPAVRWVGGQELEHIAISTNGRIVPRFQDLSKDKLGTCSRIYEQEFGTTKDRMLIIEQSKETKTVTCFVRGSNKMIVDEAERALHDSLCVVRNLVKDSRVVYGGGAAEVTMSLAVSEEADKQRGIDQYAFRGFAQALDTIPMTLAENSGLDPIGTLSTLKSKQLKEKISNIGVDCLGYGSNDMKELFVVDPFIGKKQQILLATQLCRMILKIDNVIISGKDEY

[7] = target: CCT7 subunit of yeast TRiC (S. cerevisiae, UniProt P42943 1-550)
Sequence of CCT7 subunit of yeast TRiC (P42943 whole entry): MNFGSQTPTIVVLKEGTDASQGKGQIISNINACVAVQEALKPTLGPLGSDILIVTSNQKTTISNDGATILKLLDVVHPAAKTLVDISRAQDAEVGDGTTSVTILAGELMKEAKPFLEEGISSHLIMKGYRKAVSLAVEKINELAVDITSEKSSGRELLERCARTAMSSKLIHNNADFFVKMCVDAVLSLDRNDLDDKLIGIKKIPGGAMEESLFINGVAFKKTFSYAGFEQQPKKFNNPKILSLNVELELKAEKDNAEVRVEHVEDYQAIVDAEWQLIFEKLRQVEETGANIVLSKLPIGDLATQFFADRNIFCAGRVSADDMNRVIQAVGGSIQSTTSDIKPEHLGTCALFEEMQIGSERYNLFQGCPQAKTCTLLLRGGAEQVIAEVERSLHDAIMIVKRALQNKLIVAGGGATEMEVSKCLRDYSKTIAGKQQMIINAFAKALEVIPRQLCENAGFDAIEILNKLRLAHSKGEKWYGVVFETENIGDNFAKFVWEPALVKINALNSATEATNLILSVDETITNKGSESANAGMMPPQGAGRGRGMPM

Measured: binding result

Sequence of CCT6 subunit of yeast TRiC (P39079 whole entry): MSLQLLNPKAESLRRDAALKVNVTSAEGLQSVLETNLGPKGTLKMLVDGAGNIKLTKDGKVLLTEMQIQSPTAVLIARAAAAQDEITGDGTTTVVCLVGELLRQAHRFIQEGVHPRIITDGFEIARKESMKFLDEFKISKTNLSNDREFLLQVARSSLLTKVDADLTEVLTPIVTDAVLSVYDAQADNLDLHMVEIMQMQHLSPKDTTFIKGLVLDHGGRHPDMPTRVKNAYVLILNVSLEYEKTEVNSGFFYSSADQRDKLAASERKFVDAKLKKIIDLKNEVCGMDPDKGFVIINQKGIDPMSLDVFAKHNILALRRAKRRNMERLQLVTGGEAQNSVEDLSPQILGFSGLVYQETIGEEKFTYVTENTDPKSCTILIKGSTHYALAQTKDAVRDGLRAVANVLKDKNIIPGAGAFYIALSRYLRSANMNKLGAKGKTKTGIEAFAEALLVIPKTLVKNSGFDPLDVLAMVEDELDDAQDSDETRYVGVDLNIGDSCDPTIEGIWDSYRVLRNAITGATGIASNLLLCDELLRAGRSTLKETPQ
Sequence of CCT4 subunit of yeast TRiC (P39078 whole entry): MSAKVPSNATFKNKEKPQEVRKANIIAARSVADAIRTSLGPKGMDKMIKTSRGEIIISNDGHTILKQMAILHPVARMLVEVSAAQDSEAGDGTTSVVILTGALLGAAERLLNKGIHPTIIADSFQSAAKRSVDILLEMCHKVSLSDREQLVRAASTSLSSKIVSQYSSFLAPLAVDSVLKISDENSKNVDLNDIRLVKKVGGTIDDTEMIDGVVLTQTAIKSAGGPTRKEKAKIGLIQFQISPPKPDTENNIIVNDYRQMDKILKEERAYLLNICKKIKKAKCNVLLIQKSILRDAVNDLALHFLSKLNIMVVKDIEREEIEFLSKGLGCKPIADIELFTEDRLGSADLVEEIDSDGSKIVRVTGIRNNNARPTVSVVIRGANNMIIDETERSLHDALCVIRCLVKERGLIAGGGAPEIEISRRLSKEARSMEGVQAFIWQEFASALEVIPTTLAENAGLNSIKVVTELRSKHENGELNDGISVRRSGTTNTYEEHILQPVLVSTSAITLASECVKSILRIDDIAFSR
Sequence of CCT3 subunit of yeast TRiC (P39077 whole entry): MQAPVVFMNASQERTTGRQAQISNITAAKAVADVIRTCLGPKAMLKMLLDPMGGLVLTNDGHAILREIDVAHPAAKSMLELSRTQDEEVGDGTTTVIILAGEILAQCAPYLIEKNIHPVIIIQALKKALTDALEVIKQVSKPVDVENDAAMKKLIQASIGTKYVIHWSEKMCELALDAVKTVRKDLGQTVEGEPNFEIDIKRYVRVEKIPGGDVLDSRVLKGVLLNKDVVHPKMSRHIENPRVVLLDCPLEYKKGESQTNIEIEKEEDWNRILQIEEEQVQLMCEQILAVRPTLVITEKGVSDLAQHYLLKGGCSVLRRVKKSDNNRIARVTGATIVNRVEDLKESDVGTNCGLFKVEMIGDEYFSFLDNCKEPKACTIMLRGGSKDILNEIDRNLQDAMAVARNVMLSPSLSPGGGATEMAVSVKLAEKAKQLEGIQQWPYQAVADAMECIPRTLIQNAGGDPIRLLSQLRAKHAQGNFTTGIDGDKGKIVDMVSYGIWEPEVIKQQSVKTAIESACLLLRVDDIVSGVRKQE
Sequence of CCT1 subunit of yeast TRiC (P12612 whole entry): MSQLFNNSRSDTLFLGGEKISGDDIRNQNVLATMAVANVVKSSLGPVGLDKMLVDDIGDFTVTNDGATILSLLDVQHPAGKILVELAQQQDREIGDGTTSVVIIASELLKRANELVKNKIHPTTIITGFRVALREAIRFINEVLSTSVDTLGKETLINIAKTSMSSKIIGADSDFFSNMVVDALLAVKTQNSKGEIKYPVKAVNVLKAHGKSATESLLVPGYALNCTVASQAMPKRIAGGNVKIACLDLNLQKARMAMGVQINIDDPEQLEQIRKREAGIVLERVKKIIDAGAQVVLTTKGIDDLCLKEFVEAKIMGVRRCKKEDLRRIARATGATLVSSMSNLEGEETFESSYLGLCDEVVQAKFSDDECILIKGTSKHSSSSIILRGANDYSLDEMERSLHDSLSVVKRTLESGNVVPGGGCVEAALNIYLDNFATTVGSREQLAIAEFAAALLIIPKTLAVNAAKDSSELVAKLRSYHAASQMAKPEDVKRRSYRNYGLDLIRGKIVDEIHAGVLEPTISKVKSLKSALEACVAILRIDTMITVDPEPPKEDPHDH

B1: yeast plp2 (homolog of PhLP2 in Saccharomyces cerevisiae) (natural protein, S. cerevisiae)
chain: MQNEPMFQVQVDESEDSEWNDILRAKGVIPERAPSPTAKLEEALEEAIAKQHENRLEDKDLSDLEELEDDEDEDFLEAYKIKRLNEIRKLQERSKFGEVFHINKPEYNKEVTLASQGKKYEGAQTNDNGEEDDGGVYVFVHLSLQSKLQSRILSHLFQSAACKFREIKFVEIPANRAIENYPESNCPTLIVYYRGEVIKNMITLLELGGNNSKMEDFEDFMVKVGAVAEGDNRLIMNRDDEESREERKLHYGEKKSIRSGIRGKFNVGIGGNDDGNINDDDDGFFD
binds: [1] | [2] | [3] | [4] | [5] | [6] | [7]
